Measurements from patent publication US20120214741A1 (BEN GURION UNIVERSITY OF THE NEGEV RESEARCH AND DEVELOPMENT …, published 2012).

T1: Rat brain HK-I (hexokinase-I), purified (rat, UniProt P05708 1-918)
T1 construct: Purified from rat brain; Used in the planar lipid bilayer and isolated-mitochondria assays
T1 sequence (looked up): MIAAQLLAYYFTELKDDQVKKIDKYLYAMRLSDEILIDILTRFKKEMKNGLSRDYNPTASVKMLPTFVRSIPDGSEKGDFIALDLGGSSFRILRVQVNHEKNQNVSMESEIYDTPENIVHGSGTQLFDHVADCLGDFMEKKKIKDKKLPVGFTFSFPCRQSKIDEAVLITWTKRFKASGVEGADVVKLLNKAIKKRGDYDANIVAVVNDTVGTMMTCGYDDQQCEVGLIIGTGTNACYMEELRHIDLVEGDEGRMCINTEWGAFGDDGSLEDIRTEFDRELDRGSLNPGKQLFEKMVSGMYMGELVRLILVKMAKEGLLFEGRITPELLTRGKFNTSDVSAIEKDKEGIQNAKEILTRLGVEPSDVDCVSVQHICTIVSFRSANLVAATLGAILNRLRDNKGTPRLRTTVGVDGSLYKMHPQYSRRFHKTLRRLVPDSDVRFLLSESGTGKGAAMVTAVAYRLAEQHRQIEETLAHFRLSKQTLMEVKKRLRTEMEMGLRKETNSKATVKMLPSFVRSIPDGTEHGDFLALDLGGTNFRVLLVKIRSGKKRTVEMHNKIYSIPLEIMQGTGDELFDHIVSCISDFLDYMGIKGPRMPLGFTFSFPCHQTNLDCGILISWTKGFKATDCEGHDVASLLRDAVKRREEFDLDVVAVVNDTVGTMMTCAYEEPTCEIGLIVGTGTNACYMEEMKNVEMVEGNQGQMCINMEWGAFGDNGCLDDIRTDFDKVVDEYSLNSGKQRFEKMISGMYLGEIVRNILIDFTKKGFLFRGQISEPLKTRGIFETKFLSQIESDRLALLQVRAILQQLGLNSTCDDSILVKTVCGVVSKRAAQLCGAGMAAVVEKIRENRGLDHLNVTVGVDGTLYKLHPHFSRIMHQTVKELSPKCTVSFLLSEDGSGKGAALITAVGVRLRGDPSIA


How the values were obtained:
[1] = target: T1, Rat brain HK-I (hexokinase-I), purified; assay: purified proteins, VDAC1 reconstituted into a planar lipid bilayer, channel recording
Description: Only PLBs with a resistance greater than 100 GΩ were used. Purified VDAC (about 1 ng) was added to the chamber defined as the cis side. […] Sigma Plot 2000 scientific software was used for data analyses. Experiments were performed at 23-25° C.

[2] = target: T1, Rat brain HK-I (hexokinase-I), purified; assay: detachment of HK-I from rat brain mitochondria by the peptide (competition); HK-I activity in the supernatant

| binding result [1] | binding result [2] | Binder |
| --- | --- | --- |
| binds |  | native mVDAC1 (mouse VDAC1), purified recombinant (other, Extracted from mitochondria of yeast expressing mVDAC1, purified and reconstituted into a planar lipid bilayer; also called native VDAC1) MAVPPTYADLGKSARDVFTKGYGFGLIKLDLKTKSENGLEFTSSGSANTETTKVNGSLETKYRWTEYGLTFTEKWNTDNTLGTEITVEDQLARGLKLTFDSSFSPNTGKKNAKIKTGYKREHINLGCDVDFDIAGPSIRGALVLGYEGWLAGYQMNFETSKSRVTQSNFAVGYKTDEFQLHTNVNDGTEFGGSIYQKVNKKLETAVNLAWTAGNSNTRFGIAAKYQVDPDACFSAKVNNSSLIGLGYTQTLKPGIKLTLSALLDGKNVNAGGHKLGLGLEFQA |
|  | binds | WTEYGLTFTEKWNTD (No CPP or Trp zipper in these assays; also called LP1 peptide) [Peptide LP1 (VDAC1 loop 1 peptide)] |
